From patent publication US20060110799A1, “Mitogen-activated protein kinase kinase MEK6 and methods of use thereof” (Signal Pharmaceuticals, Inc., priority 1995, published 2006)
Where two headings read alike, the source gives them in different places. One block for each molecule: values may come before it.

Experiments:
MEK6 = test: immune complex kinase assay with GST-p38 substrate, HeLa cells transfected with epitope-tagged MEK6; format: cell-based, human; conditions: for stimulation of MEK6 (summary of Example 4): summary statement for transfected HeLa and COS cells
Procedure: Next, we examined whether MEK6 can activate p38 in vivo. An expression vector encoding epitope-tagged MEK6 (3xHA-MEK6-SRα3) was constructed by replacing serine in position 2 of MEK6 with alanine, adding sequence encoding three copies of a 10 amino acid hemagglutinin (HA) epitope to the N-terminus of MEK6 and ligating the resulting cDNA into SRα3. HeLa cells, cultured in Dulbecco's modified Eagle medium supplemented with 10% fetal calf serum, 500 mg/l L-glutamine, and antibiotics, were transiently transfected with 3xHA-MEK6 using calcium phosphate-mediated DNA precipitation (Graham and van der Eb, Virology 52:456-467 (1973)). Twenty-four hours later cells were stimulated with anisomycin (50 ng/mL) or UV (254 nm; 120 J/m^2) for 0-120 minutes. Cell lysates were prepared by solubilization in lysis buffer as described (Derijard et al., Cell 76:1025-1037 (1994)), and protein concentration of lysates was determined by Bradford assay (Bradford, Ann. Biochem. 72:248-254(1976)).
In an initial experiment we investigated the time course of MEK6 activation by anisomycin and UV treatment of transfected cells. Cell lysates were used in an immune complex kinase assay with GST-p38 substrate, performed as described above except that 30 μg cell lysate was immunoprecipitated for 2 hours with the anti-HA antibody 12CA5 (Boehringer-Mannheim Corp., Indianapolis, Ind.) and then incubated with 1 μg of recombinant substrate. Reactions were separated by SDS-PAGE and quantitated with a phosphorimager and ImageQuant software. The relative level of MEK6 activity in untreated cells was arbitrarily assigned 1.
To investigate the pattern of regulation of MEK6, cells were transiently transfected with 3xHA-MEK6 (as described in Example 3) and treated with various stimulators of the MAPK pathway.
MEKK has been described as a MAPKKK leading to the phosphorylation and activation of JNKK (Lin et al., Science 268:286-290 (1995); Minden et al., Science 266:1719-1722 (1994); Yan et al., Nature 372:798-800 (1994)). In an initial experiment, HeLa (FIG. 7A) or COS (FIG. 7B) cells were transiently transfected with epitope-tagged MEK6 (lanes 1 to 12) or the empty expression vector SRα3 (lanes 13 to 16) and treated for 45 min with IL-1β (10 ng/ml), TNF-α (10 ng/ml), EGF (50 ng/ml), NGF (50 ng/ml), PMA (50 ng/ml), Anisomycin (50 ng/ml), Cycloheximide (CX, 50 ng/ml), Arsenite (200 μM), NaCl (200 μM), UV (254 nm; 120 J/m^2) or cotransfected with 1000 ng CMV5-MEKK as indicated. Cell lysates were used in an immune complex kinase assay with GST-p38 substrate as described in Example 3. MEK6 activity was quantitated with a phosphorimager and ImageQuant software.

MEK6 / p38 / ATF2 = test: coupled immune complex kinase assay, MEK6 from anisomycin-treated HeLa cells, recombinant p38 and ATF2; format: cell-based, human; conditions: anisomycin 45 minutes, 50 ng/mL, FIG. 6
Procedure: To determine whether the increase in p38 phosphorylation by activated MEK6 augments p38 kinase activity a coupled immune complex kinase assay was performed. Epitope-tagged MEK6 was isolated from anisomycin-treated HeLa cells (45 minutes; 50 ng/mL) and subjected to two subsequent kinase reactions as described above using recombinant p38, ATF2 and GST alone. […] Similar results have been found with MEK6 activated by UV treatment of cells (data not shown). […] This phosphorylation event was slightly augmented by anisomycin in the presence of MEK6 (FIG. 6, compare lanes 3 and 4 with lanes 11 and 12). This protein was not observed in in vitro kinase assays, and therefore is most likely a contamination of the immunoprecipitation.

[1] = test system: GST-JNK2 / GST-cJun(1-79); test: coupled in vitro kinase assay (JNK2, GST-cJun(1-79)); format: biochemical; conditions: FIG. 3B lanes 1 to 3
GST-p38 [2] = biological target: T1, GST-p38 (Homo sapiens, UniProt P52564, S2A); test: in vitro kinase assay with bacterially expressed MAPK substrate; format: biochemical; conditions: in vitro kinase assay, compared to MKK3
T1 construct: ligating the respective cDNA fragments encoding amino acid 1 through the stop codon into pGEX-KG; made in house; host or cells: bacteria (pGEX-KG)
T1 sequence (P52564 1-334 S2A): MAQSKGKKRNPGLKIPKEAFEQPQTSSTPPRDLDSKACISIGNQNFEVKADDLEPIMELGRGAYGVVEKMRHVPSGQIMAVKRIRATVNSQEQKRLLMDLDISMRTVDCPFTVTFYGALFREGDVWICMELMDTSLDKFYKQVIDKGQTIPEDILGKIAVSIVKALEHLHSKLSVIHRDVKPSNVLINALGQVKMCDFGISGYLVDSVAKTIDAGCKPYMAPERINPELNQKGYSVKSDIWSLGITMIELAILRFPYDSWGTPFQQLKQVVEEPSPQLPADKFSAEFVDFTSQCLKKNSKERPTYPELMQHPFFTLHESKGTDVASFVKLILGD
Procedure: (§1) A MEK6 kinase assay may be performed substantially as described in Derijard et al., Cell 76:1025-1037 (1994) and Lin et al., Science 268:286-290 (1995), with minor modifications. Briefly, a polypeptide variant of MEK6 may be incubated with p38 and [γ-^32P]ATP in a suitable buffer (such as 20 mM HEPES (pH 7.6), 5 mM MnCl2, 10 mM MgCl2, 1 mM dithiothreitol) for 30 minutes at 30° C. In general, approximately 0.5 μg of the variant and 1 μg recombinant p38, with 50 nM [γ-^32P]ATP, is sufficient. Proteins may then be separated by SDS-PAGE on 10% gels and subjected to autoradiography. Incorporation of [^32P]phosphate into p38 may be quantitated using techniques well known to those of ordinary skill in the art, such as with a phosphorimager. To evaluate the substrate specificity of polypeptide variants, a kinase assay may generally be performed as described above except that other MAPK substrates (i.e., JNK2 and/or ERK) are substituted for the p38.
(§2) cDNAs encoding MEK6 and MKK3 were subcloned into a bacterial GST-fusion protein expression vector. GST-MEK6 was constructed by ligating a 1.3 kb DNA fragment encoding amino acid 1 through the stop codon of MEK6 with a serine to alanine substitution of amino acid 2 into pGEX-KG (Guan and Dixon, Ann. Biochem. 192:262-267 (1991)). Similarly, GST-MKK3, GST-p38 and GST-JNK2 were constructed by ligating the respective cDNA fragments encoding amino acid 1 through the stop codon into pGEX-KG. Human p38 cDNA (Genbank accession number U10871) was cloned by PCR amplification of a Jurkat cDNA library with primers against the 5′ end (5′-[…]-3′) (SEQ ID NO:5) and 3′ end (5′-[…]-3′) (SEQ ID NO:6) of the published human p38 sequence. Each strand of the PCR fragment was sequenced several times with an ABI 373 Automated Sequencer. His-ERK1[K52R] was prepared as described previously (Robbins et al., J. Biol. Chem. 268:5097-5106 (1993)).
(§3) We investigated the substrate specificity of MEK6 in an in vitro kinase assay with bacterially expressed MAPK substrates (GST-JNK2, GST-p38 and His-ERK1[K52R]). The assays were performed as previously described (Derijard et al., Cell 76:1025-1037 (1994); Lin et al., Science 268:286-290 (1995)) with minor modifications. 0.5 μg recombinant kinase and 1 μg recombinant substrate were used, and the concentration of [γ-^32P]ATP was 50 nM. Phosphorylated proteins were separated by SDS-PAGE on 10% gels and then subjected to autoradiography. Incorporation of [^32P]phosphate was quantitated with a phosphorimager and ImageQuant software (Molecular Dynamics, Inc., Sunnyvale, Calif.).

GST-p38 [3] = biological target: T2, GST-p38 (Homo sapiens, UniProt Q16539, S2A); test: as above; format: biochemical; conditions: 0.5 μg recombinant kinase, 1 μg substrate, 50 nM [γ-32P]ATP
T2 construct: ligating the respective cDNA fragments encoding amino acid 1 through the stop codon into pGEX-KG; made in house; host or cells: bacteria (pGEX-KG)
T2 sequence (Q16539 whole entry S2A, the tested form may be a part): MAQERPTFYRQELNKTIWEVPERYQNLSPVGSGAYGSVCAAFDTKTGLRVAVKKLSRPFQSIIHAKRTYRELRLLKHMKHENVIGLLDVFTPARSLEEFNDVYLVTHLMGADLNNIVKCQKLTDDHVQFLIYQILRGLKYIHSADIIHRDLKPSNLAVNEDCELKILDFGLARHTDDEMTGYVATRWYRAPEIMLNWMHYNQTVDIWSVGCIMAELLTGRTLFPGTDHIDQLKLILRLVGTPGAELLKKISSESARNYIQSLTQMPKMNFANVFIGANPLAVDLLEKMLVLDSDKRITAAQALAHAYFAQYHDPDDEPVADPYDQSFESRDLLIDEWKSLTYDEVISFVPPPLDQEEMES
Procedure: as §1, §2, §3

GST-JNK2 = biological target: T3, GST-JNK2 (Homo sapiens, UniProt P45984); test: as above; format: biochemical; conditions: 0.5 μg recombinant kinase, 1 μg substrate, 50 nM [γ-32P]ATP
T3 construct: ligating the respective cDNA fragments encoding amino acid 1 through the stop codon into pGEX-KG; made in house; host or cells: bacteria (pGEX-KG)
Procedure: as §1, §2, §3

His-ERK1[K52R] = test: as above; format: biochemical; conditions: 0.5 μg recombinant kinase, 1 μg substrate, 50 nM [γ-32P]ATP
Procedure: as §1, §2, §3

GST-p38 / GST-ATF2 = test: coupled in vitro kinase assay (p38, GST-ATF2); format: biochemical, human
Procedure: To determine whether p38 phosphorylation results in activation, a coupled in vitro kinase assay may be performed using a substrate for p38, such as ATF2, with or without an epitope tag. ATF2 for use in such an assay may be prepared as described in Gupta et al., Science 257:389-393 (1995). Briefly, following phosphorylation of p38 as described above, isolation of the protein by binding to GSH-sepharose and washing with 20 mM HEPES (pH 7.6), 20 mM MgCl2, the p38 (0.1-10 μg) may be incubated with ATF2 (0.1-10 μg) and [γ-^32P]ATP (10-500 nM) in a buffer containing 20 mM HEPES (pH 7.6), 20 mM MgCl2. It should be noted that alternative buffer may be used and that buffer composition can vary without significant effects on kinase activity. Reactions may be separated by SDS-PAGE, visualized by autoradiography and quantitated using any of a variety of known techniques. Activated p38 will be capable of phosphorylating ATF2 at a level of at least 5% above background using this assay.
To determine whether phosphorylation of p38 is an activating event we analyzed the phosphorylation of recombinant ATF2 (a substrate for p38) in a coupled in vitro kinase assay. […] Reactions were separated by SDS-PAGE and visualized by autoradiography.

[4] = HeLa cells, 45 min, anisomycin 50 ng/ml, NaCl 200 μM, IL-1β 10 ng/ml, EGF 50 ng/ml, NGF 50 ng/ml, CMV5-MEKK 1000 ng cotransfected, FIG. 7A
[5] = HeLa cells, anisomycin 50 ng/mL, FIG. 4

Molecule: [Cl-].[Na+] [NaCl]
induction of MEK6 kinase activity (MEK6): strongest inducers

Molecule: COc1ccc(C[C@H]2NC[C@H](O)[C@H]2OC(C)=O)cc1 [anisomycin]
induction of MEK6 kinase activity (MEK6; [4]): strongest inducers
time at which MEK6 activation was first observed after treatment (MEK6; [5]): 10 min
time of peak MEK6 activation after treatment (MEK6; [5]): 40 min
stimulation of MEK6 (summary of Example 4) (MEK6): strongly activated
phosphorylation of ATF2 after anisomycin treatment (MEK6 / p38 / ATF2): increased phosphorylation of ATF2 only when MEK6 and p38 were present

Molecule: C[C@@H]1C[C@@H]([C@H](O)CC2CC(=O)NC(=O)C2)C(=O)[C@@H](C)C1 [cycloheximide]
stimulation of MEK6 (summary of Example 4) (MEK6): did not significantly activate MEK6

Molecule: EGF: strong inducer of the ERK pathway
induction of MEK6 kinase activity (MEK6; [4]): did not activate MEK6
stimulation of MEK6 (summary of Example 4) (MEK6): did not stimulate MEK6

Molecule: IL-1β: cytokine stimulator
induction of MEK6 kinase activity (MEK6; [4]): weak induction

Molecule: NGF: strong inducer of the ERK pathway
induction of MEK6 kinase activity (MEK6; [4]): did not activate MEK6
stimulation of MEK6 (summary of Example 4) (MEK6): did not stimulate MEK6

autophosphorylation of MEK6 (GST-p38 [2]): very low compared to MKK3
phosphorylation of p38 by MEK6 (GST-p38 [3]): efficiently phosphorylated p38
phosphorylation of JNK2 by MEK6 (GST-JNK2): none of the other substrates
phosphorylation of ERK1[K52R] by MEK6 (His-ERK1[K52R]): none of the other substrates
phosphorylation of ATF2 by p38 activated by MEK6 (GST-p38 / GST-ATF2; FIG. 3B lane 5): strongly phosphorylated
direct phosphorylation of ATF2 by MEK6 (GST-p38 / GST-ATF2; without p38): not directly phosphorylated
B1: MEK6: human mitogen-activated protein kinase kinase, SEQ ID NO:2, 334 amino acids; used as GST fusion or HA epitope-tagged (protein)
chain: SQSKGKKRNPGLKIPKEAFEQPQTSSTPPRDLDSKACISIGNQNFEVKADDLEPIMELGRGAYGVVEKMRHVPSGQIMAVKRIRATVNSQEQKRLLMDLDISMRTVDCPFTVTFYGALFREGDVWICMELMDTSLDKFYKQVIDKGQTIPEDILGKIAVSIVKALEHLHSKLSVIHRDVKPSNVLINALGQVKMCDFGISGYLVDSVAKTIDAGCKPYMAPERINPELNQKGYSVKSDIWSLGITMIELAILRFPYDSWGTPFQQLKQVVEEPSPQLPADKFSAEFVDFTSQCLKKNSKERPTYPELMQHPFFTLHESKGTDVASFVKLILGD
modifications: GST fusion or HA tag; homo sapien
phosphorylation of Jun, directly or in combination with JNK2 [1]: did not cause increased phosphorylation of Jun
